Here are results for one molecule from publication PMC4990258, “Mutations at the Subunit Interface of Yeast Proliferating Cell Nuclear Antigen Reveal a Versatile Regulatory Domain” (PLoS ONE, 2016).

The assay addresses T1, GST-Rev1 (full-length Rev1) (S. cerevisiae, UniProt P12689 1-985).
T1 construct: Rev1, yeast, full-length; Held on the beads by GST during the incubation; Rev1 was cut from GST by PreScission protease only at the elution step; not shown: GST, N-terminal, kept
T1 sequence (looked up): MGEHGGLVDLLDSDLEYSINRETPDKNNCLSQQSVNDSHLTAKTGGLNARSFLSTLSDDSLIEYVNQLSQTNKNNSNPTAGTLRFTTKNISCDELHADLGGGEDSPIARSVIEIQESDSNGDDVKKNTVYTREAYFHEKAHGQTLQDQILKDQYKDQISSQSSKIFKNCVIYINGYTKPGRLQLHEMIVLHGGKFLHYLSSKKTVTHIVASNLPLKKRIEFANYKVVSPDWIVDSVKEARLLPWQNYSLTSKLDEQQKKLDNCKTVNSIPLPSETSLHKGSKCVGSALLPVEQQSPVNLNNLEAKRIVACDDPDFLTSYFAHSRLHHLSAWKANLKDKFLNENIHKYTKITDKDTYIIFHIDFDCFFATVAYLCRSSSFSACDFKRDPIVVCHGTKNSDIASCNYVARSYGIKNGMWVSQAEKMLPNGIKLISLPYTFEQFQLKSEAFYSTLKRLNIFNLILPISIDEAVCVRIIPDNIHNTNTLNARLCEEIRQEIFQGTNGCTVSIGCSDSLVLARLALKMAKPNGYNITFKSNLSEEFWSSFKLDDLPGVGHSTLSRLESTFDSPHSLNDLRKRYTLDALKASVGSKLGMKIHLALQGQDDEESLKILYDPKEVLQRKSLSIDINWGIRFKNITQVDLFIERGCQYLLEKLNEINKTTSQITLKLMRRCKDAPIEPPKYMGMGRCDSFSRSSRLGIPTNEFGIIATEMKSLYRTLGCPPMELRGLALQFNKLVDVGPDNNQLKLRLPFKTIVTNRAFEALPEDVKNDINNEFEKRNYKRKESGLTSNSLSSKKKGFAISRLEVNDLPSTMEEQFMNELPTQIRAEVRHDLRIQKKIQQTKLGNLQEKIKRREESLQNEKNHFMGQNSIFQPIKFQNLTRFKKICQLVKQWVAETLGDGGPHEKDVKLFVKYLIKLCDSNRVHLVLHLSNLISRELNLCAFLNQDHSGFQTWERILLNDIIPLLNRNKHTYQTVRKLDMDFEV
The assay is described as follows: pull-down; GST-Rev1 (5 μg) immobilised on glutathione-Sepharose beads, incubated with purified PCNA (3 μg) overnight on ice; 50 mM Tris/HCl pH 7.5, 100 mM NaCl, 1 mM EDTA, 1 mM DTT, 10% glycerol, 0.01% Nonidet P-40; five washes; eluted by PreScission protease cleavage of Rev1 from GST; SDS-PAGE. To be noted: both partners purified.

B1: wild type PCNA (proliferating cell nuclear antigen, Saccharomyces cerevisiae) (natural protein, S. cerevisiae)
chain: MLEAKFEEASLFKRIIDGFKDCVQLVNFQCKEDGIIAQAVDDSRVLLVSLEIGVEAFQEYRCDHPVTLGMDLTSLSKILRCGNNTDTLTLIADNTPDSIILLFEDTKKDRIAEYSLKLMDIDADFLKIEELQYDSTLSLPSSEFSKIVRDLSQLSDSINIMITKETIKFVADGDIGSGSVIIKPFVDMEHPETSIKLEMDQPVDLTFGAKYLLDIIKGSSLSDRVGIRLSSEAPALFQFDLKSGFLQFFLAPKFNDEE
notes: PCNA (POL30 gene product), Saccharomyces cerevisiae, wild type; the oligomeric state of the purified protein was not measured here; also called wt PCNA; yeast PCNA; source: yeast BJ5464, overexpressed as GST fusion, purified on glutathione-Sepharose 4B, GST removed by PreScission protease; not shown: GST, N-terminal, cleaved
For B1, the binding result is “binds”.
